Results from PMC12861479, “SlERF.D2-mediated antagonism between ethylene and ABA signaling pathways modulates osmotic stress adaptation in tomato”.

Key:
Experiment in all cases: EMSA; not stated; EMSA performed as in a previous study (ref 68)
MBP-SlEIL3 = target: T1, MBP-SlEIL3 (Solanum lycopersicum (tomato), UniProt Q94FV2 1-601); settings: protein: recombinant; tags: MBP (pMAL-c5G); chain copies: 2; label: 5' biotin; blunt
T1 sequence: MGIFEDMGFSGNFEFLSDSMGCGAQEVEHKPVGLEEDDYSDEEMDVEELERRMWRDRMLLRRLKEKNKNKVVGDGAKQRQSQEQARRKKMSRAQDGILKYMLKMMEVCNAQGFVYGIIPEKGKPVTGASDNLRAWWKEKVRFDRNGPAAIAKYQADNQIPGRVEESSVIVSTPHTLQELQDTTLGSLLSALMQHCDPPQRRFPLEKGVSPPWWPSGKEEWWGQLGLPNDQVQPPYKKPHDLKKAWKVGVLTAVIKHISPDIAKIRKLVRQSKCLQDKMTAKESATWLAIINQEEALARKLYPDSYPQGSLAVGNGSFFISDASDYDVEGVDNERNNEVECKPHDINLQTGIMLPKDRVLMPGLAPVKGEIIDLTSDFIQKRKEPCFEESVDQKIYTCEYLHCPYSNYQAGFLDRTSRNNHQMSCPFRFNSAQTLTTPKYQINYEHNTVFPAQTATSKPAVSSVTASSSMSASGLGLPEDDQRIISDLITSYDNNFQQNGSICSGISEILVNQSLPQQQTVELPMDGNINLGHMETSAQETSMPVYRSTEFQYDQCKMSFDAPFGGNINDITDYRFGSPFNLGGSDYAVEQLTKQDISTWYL

MBP-SlEIL2 = target: T2, MBP-SlEIL2 (Solanum lycopersicum (tomato), UniProt Q94FV3 1-614); settings: protein: recombinant; tags: MBP (pMAL-c5G); chain copies: 2; label: 5' biotin; blunt
T2 sequence: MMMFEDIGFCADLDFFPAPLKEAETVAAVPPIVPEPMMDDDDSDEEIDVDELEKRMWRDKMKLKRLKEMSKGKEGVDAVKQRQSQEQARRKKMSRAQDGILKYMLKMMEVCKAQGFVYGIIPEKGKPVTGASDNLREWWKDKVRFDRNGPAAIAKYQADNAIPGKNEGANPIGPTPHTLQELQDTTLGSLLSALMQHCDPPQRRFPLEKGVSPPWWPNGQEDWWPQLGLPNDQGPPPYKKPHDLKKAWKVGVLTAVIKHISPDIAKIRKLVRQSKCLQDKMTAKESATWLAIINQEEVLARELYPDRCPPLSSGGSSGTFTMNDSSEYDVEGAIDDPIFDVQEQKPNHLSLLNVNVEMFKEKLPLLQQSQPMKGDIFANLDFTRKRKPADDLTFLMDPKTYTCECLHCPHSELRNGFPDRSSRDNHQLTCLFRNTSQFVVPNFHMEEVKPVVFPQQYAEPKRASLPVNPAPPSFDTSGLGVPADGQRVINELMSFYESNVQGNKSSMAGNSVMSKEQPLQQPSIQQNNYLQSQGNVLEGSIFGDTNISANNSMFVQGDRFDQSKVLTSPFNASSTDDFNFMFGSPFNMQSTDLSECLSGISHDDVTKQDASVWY

MBP-SlEIL1 = target: T3, MBP-SlEIL1 (Solanum lycopersicum (tomato), UniProt Q94FV4 1-610); settings: protein: recombinant; tags: MBP (pMAL-c5G); chain copies: 2; label: 5' biotin; blunt
T3 sequence: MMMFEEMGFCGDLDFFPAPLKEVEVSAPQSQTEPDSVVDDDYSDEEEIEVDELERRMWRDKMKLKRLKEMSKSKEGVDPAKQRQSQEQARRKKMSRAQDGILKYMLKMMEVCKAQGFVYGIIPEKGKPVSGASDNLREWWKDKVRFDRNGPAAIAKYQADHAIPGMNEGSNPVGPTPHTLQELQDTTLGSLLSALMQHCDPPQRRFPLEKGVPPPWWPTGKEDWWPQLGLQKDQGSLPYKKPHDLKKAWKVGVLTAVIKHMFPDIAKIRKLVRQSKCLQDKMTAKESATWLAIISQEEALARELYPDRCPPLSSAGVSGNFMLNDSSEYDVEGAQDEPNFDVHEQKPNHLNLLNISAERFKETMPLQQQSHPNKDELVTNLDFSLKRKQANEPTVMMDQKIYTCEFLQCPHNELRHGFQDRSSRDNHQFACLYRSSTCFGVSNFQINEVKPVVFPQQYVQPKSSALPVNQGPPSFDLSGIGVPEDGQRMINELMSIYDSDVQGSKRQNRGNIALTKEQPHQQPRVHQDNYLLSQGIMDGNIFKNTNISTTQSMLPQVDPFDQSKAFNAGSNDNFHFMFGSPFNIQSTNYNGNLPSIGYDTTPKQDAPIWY

MBP-SlEIL4 = MBP-SlEIL4 (Solanum lycopersicum (tomato), UniProt A0A3Q7GZH0 1-605); settings: protein: recombinant; tags: MBP (pMAL-c5G); label: 5' biotin; blunt

Measured: binding result

B1: SlERF.D2 promoter EBS probe WT (dsDNA)
DNA 1: GTTATAACAGACATACATGCGCTAATATCG
DNA 2: CGATATTAGCGCATGTATGTCTGTTATAAC
binds: all assays above
